Results taken from the supplement of paper PMC5998384.

Key:
HeLa Kyoto [1] = assay: solubility in G1/S (NP-40 vs SDS abundance) (log2 ratio); higher = more soluble; details: cell cycle stage: G1/S
HeLa Kyoto [2] = assay: melting temperature (median over replicates), in situ; higher = more thermally stable
HeLa Kyoto [3] = assay: solubility change mitosis vs G1/S (difference of NP-40 vs SDS log2 ratios) (log2 ratio difference); higher = more soluble in mitosis
HeLa Kyoto [4] = assay: thermal stability score vs G1/S (z-score of summed log2 fold changes over temperatures); higher = more thermally stable than in G1/S
[5] = cell cycle stage: early G1 (4.5 h after nocodazole release)
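Throughout, for melting temperature (median over replicates), in situ: HeLa Kyoto cells synchronized by double thymidine or nocodazole block, proteins quantified by TMT10plex mass spectrometry, three independent biological replicates.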
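Throughout, for solubility change mitosis vs G1/S (difference of NP-40 vs SDS log2 ratios): synchronized HeLa Kyoto cells (double thymidine block for G1/S, nocodazole release for mitosis), protein amounts in NP-40 versus SDS lysates quantified by mass spectrometry, three biological replicates.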
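Throughout, for solubility in G1/S (NP-40 vs SDS abundance): HeLa Kyoto cells arrested at G1/S by double thymidine block, proteins quantified by TMT10plex mass spectrometry in mild NP-40 versus SDS extracts, three biological replicates.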
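Throughout, for thermal stability score vs G1/S (z-score of summed log2 fold changes over temperatures): synchronized HeLa Kyoto cells, proteins quantified by TMT10plex mass spectrometry, three biological replicates, mitosis taken 0.5 h after nocodazole release, G1/S directly after double thymidine block.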

Chain of CLIC4 (chain, as listed by the source): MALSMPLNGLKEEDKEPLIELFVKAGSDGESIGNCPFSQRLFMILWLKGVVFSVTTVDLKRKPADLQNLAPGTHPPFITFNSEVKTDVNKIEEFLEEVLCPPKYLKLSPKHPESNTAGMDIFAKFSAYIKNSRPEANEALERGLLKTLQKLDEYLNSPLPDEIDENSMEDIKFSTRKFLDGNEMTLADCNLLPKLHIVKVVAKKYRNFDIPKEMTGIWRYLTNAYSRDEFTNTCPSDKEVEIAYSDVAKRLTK

Row | Substance | solubility in G1/S (log2) (HeLa Kyoto [1]) | melting temperature (HeLa Kyoto [2]; cell cycle stage: G1/S) | melting temperature (HeLa Kyoto [2]; cell cycle stage: mitosis) | solubility change mitosis (log2) (HeLa Kyoto [3]) | thermal stability score (HeLa Kyoto [4]; [5]) | thermal stability score (HeLa Kyoto [4]; cell cycle stage: mitosis)
1 | MNSNVENLPPHIIRLVYKEVTTLTADPPDGIKVFPNEEDLTDLQVTIEGPEGTPYAGGLFRMKLLLGKDFPASPPKGYFLTKIFHPNVGANGEICVNVLKRDWTAELGIRHVLLTIKCLLIHPNPESALNEEAGRLLLENYEEYAARARLLTEIHGGAGGPSGRAEAGRALASGTEASSTDPGAPGGPGGAEGPMAKKHAGERDKKLAAKKKTDKKRALRRL [UBE2S] | 0.347 | 51 °C | 50.9 °C | 0.0837 | 1.11 | 0.461
2 | CLIC4 | 0.409 | 52.1 °C | 52.5 °C | -0.146 | -0.344 | 0.497
3 | MASTDYSTYSQAAAQQGYSAYTAQPTQGYAQTTQAYGQQSYGTYGQPTDVSYTQAQTTATYGQTAYATSYGQPPTGYTTPTAPQAYSQPVQGYGTGAYDTTTATVTTTQASYAAQSAYGTQPAYPAYGQQPAATAPTRPQDGNKPTETSQPQSSTGGYNQPSLGYGQSNYSYPQVPGSYPMQPVTAPPSYPPTSYSSTQPTSYDQSSYSQQNTYGQPSSYGQQSSYGQQSSYGQQPPTSYPPQTGSYSQAPSQYSQQSSSYGQQSSFRQDHPSSMGVYGQESGGFSGPGENRSMSGPDNRGRGRGGFDRGGMSRGGRGGGRGGMGSAGERGGFNKPGGPMDEGPDLDLGPPVDPDEDSDNSAIYVQGLNDSVTLDDLADFFKQCGVVKMNKRTGQPMIHIYLDKETGKPKGDATVSYEDPPTAKAAVEWFDGKDFQGSKLKVSLARKKPPMNSMRGGLPPREGRGMPPPLRGGPGGPGGPGGPMGRMGGRGGDRGGFPPRGPRGSRGNPSGGGNVQHRAGDWQCPNPGCGNQNFAWRTECNQCKAPKPEGFLPPPFPPPGGDRGRGGPGGMRGGRGGLMDRGGPGGMFRGGRGGDRGGFRGGRGMDRGGFGGGRRGGPGGPPGPLMEQMGGRRGGRGGPGKMDKGEHRQERRDRPY [EWSR1] | 0.0308 | 55.6 °C | 55.8 °C | 0.157 | 0.0358 | 0.453
4 | MPVGGLLPLFSSPAGGVLGGGLGGGGGRKGSGPAALRLTEKFVLLLVFSAFITLCFGAIFFLPDSSKLLSGVLFHSSPALQPAADHKPGPGARAEDAAEGRARRREEGAPGDPEAALEDNLARIRENHERALREAKETLQKLPEEIQRDILLEKKKVAQDQLRDKAPFRGLPPVDFVPPIGVESREPADAAIREKRAKIKEMMKHAWNNYKGYAWGLNELKPISKGGHSSSLFGNIKGATIVDALDTLFIMEMKHEFEEAKSWVEENLDFNVNAEISVFEVNIRFVGGLLSAYYLSGEEIFRKKAVELGVKLLPAFHTPSGIPWALLNMKSGIGRNWPWASGGSSILAEFGTLHLEFMHLSHLSGNPIFAEKVMNIRTVLNKLEKPQGLYPNYLNPSSGQWGQHHVSVGGLGDSFYEYLLKAWLMSDKTDLEAKKMYFDAVQAIETHLIRKSSSGLTYIAEWKGGLLEHKMGHLTCFAGGMFALGADAAPEGMAQHYLELGAEIARTCHESYNRTFMKLGPEAFRFDGGVEAIATRQNEKYYILRPEVMETYMYMWRLTHDPKYRKWAWEAVEALENHCRVNGGYSGLRDVYLLHESYDDVQQSFFLAETLKYLYLIFSDDDLLPLEHWIFNSEAHLLPILPKDKKEVEIREE [MAN1A1] | 0.133 | 55 °C | 54.7 °C | -0.0318 | 1.56 | 0.0924
5 | MGELPLDINIQEPRWDQSTFLGRARHFFTVTDPRNLLLSGAQLEASRNIVQNYRAGVVTPGITEDQLWRAKYVYDSAFHPDTGEKVVLIGRMSAQVPMNMTITGCMLTFYRKTPTVVFWQWVNQSFNAIVNYSNRSGDTPITVRQLGTAYVSATTGAVATALGLKSLTKHLPPLVGRFVPFAAVAAANCINIPLMRQRELQVGIPVADEAGQRLGYSVTAAKQGIFQVVISRICMAIPAMAIPPLIMDTLEKKDFLKRRPWLGAPLQVGLVGFCLVFATPLCCALFPQKSSIHISNLEPELRAQIHEQNPSVEVVYYNKGL [SFXN3] | 0.286 | 53.6 °C | 53.5 °C | -0.0789 | -0.249 | -0.897
6 | MGEEDYYLELCERPVQFEKANPVNCVFFDEANKQVFAVRSGGATGVVVKGPDDRNPISFRMDDKGEVKCIKFSLENKILAVQRTSKTVDFCNFIPDNSQLEYTQECKTKNANILGFCWTSSTEIVFITDQGIEFYQVLPEKRSLKLLKSHNLNVNWYMYCPESAVILLSTTVLENVLQPFHFRAGTMSKLPKFEIELPAAPKSTKPSLSERDIAMATIYGQLYVLFLRHHSRTSNSTGAEVVLYHLPREGACKKMHILKLNRTGKFALNVVDNLVVVHHQDTETSVIFDIKLRGEFDGSVTFHHPVLPARSIQPYQIPITGPAAVTSQSPVPCKLYSSSWIVFQPDIIISASQGYLWNLQVKLEPIVNLLPDKGRLMDFLLQRKECKMVILSVCSQMLSESDRASLPVIATVFDKLNHEYKKYLDAEQSYAMAVEAGQSRSSPLLKRPVRTQAVLDQSDVYTHVLSAFVEKKEMPHKFVIAVLMEYIRSLNQFQIAVQHYLHELVIKTLVQHNLFYMLHQFLQYHVLSDSKPLACLLLSLESFYPPAHQLSLDMLKRLSTANDEIVEVLLSKHQVLAALRFIRGIGGHDNISARKFLDAAKQTEDNMLFYTIFRFFEQRNQRLRGSPNFTPGEHCEEHVAFFKQIFGDQALMRPTTF [C18ORF8] | -0.0478 | 51.1 °C | 50.8 °C | -0.121 | 0.23 | 0.326
7 | MNKHQKPVLTGQRFKTRKRDEKEKFEPTVFRDTLVQGLNEAGDDLEAVAKFLDSTGSRLDYRRYADTLFDILVAGSMLAPGGTRIDDGDKTKMTNHCVFSANEDHETIRNYAQVFNKLIRRYKYLEKAFEDEMKKLLLFLKAFSETEQTKLAMLSGILLGNGTLPATILTSLFTDSLVKEGIAASFAVKLFKAWMAEKDANSVTSSLRKANLDKRLLELFPVNRQSVDHFAKYFTDAGLKELSDFLRVQQSLGTRKELQKELQERLSQECPIKEVVLYVKEEMKRNDLPETAVIGLLWTCIMNAVEWNKKEELVAEQALKHLKQYAPLLAVFSSQGQSELILLQKVQEYCYDNIHFMKAFQKIVVLFYKADVLSEEAILKWYKEAHVAKGKSVFLDQMKKFVEWLQNAEEESESEGEEN [BZW2] | 0.446 | 51.3 °C | 50.1 °C | -0.11 | 2.74 | 3.19
8 | NUP188 | -0.299 | 51 °C | 49 °C | -0.108 | -2.04 | -2.93
9 | MAVVPASLSGQDVGSFAYLTIKDRIPQILTKVIDTLHRHKSEFFEKHGEEGVEAEKKAISLLSKLRNELQTDKPFIPLVEKFVDTDIWNQYLEYQQSLLNESDGKSRWFYSPWLLVECYMYRRIHEAIIQSPPIDYFDVFKESKEQNFYGSQESIIALCTHLQQLIRTIEDLDENQLKDEFFKLLQISLWGNKCDLSLSGGESSSQNTNVLNSLEDLKPFILLNDMEHLWSLLSNCKKTREKASATRVYIVLDNSGFELVTDLILADFLLSSELATEVHFYGKTIPWFVSDTTIHDFNWLIEQVKHSNHKWMSKCGADWEEYIKMGKWVYHNHIFWTLPHEYCAMPQVAPDLYAELQKAHLILFKGDLNYRKLTGDRKWEFSVPFHQALNGFHPAPLCTIRTLKAEIQVGLQPGQGEQLLASEPSWWTTGKYGIFQYDGPL [ARMT1] | 0.0146 | 49.6 °C | 49 °C | -0.15 | 1.02 | 1.91
10 | MAAPAVSGLSRQVRCFSTSVVRPFAKLVRPPVQVYGIEGRYATALYSAASKQNKLEQVEKELLRVAQILKEPKVAASVLNPYVKRSIKVKSLNDITAKERFSPLTTNLINLLAENGRLSNTQGVVSAFSTMMSVHRGEVPCTVTSASPLEEATLSELKTVLKSFLSQGQVLKLEAKTDPSILGGMIVRIGEKYVDMSVKTKIQKLGRAMREIV [ATP5O] | 0.365 | 53.4 °C | 53.2 °C | 0.116 | -2.17 | -2.27
11 | MERPDKAALNALQPPEFRNESSLASTLKTLLFFTALMITVPIGLYFTTKSYIFEGALGMSNRDSYFYAAIVAVVAVHVVLALFVYVAWNEGSRQWREGKQD [VMA21] | -0.135 | 55.6 °C | 56.7 °C | -0.124 | -1.79 | -0.397
12 | RB1CC1 | -0.0448 | 51.4 °C | 50.2 °C | -0.219 | -0.0649 | 0.267
13 | VPS13A | -0.236 | 53.6 °C | 53.7 °C | -0.144 | -1.93 | -1.94
14 | MNRTKGDEEEYWNSSKFKAFTFDDEDDELSQLKESKRAVNSLRDFVDDDDDDDLERVSWSGEPVGSISWSIRETAGNSGSTHEGREQLKSRNSFSSYAQLPKPTSTYSLSSFFRGRTRPGSFQSLSDALSDTPAKSYAPELGRPKGEYRDYSNDWSPSDTVRRLRKGKVCSLERFRSLQDKLQLLEEAVSMHDGNVITAVLIFLKRTLSKEILFRELEVRQVALRHLIHFLKEIGDQKLLLDLFRFLDRTEELALSHYREHLNIQDPDKRKEFLKTCVGLPFSAEDSAHIQDHYTLLERQIIIEANDRHLESAGQTEIFRKHPRKASILNMPLVTTLFYSCFYHYTEAEGTFSSPVNLKKTFKIPDKQYVLTALAARAKLRAWNDVDALFTTKNWLGYTKKRAPIGFHRVVEILHKNNAPVQILQEYVNLVEDVDTKLNLATKFKCHDVVIDTYRDLKDRQQLLAYRSKVDKGSAEEEKIDALLSSSQIRWKN [VIPAS39] | 0.111 | 49.5 °C | 49.2 °C | -0.125 | 0.126 | 0.142
15 | MGDERPHYYGKHGTPQKYDPTFKGPIYNRGCTDIICCVFLLLAIVGYVAVGIIAWTHGDPRKVIYPTDSRGEFCGQKGTKNENKPYLFYFNIVKCASPLVLLEFQCPTPQICVEKCPDRYLTYLNARSSRDFEYYKQFCVPGFKNNKGVAEVLQDGDCPAVLIPSKPLARRCFPAIHAYKGVLMVGNETTYEDGHGSRKNITDLVEGAKKANGVLEARQLAMRIFEDYTVSWYWIIIGLVIAMAMSLLFIILLRFLAGIMVWVMIIMVILVLGYGIFHCYMEYSRLRGEAGSDVSLVDLGFQTDFRVYLHLRQTWLAFMIILSILEVIIILLLIFLRKRILIAIALIKEASRAVGYVMCSLLYPLVTFFLLCLCIAYWASTAVFLSTSNEAVYKIFDDSPCPFTAKTCNPETFPSSNESRQCPNARCQFAFYGGESGYHRALLGLQIFNAFMFFWLANFVLALGQVTLAGAFASYYWALRKPDDLPAFPLFSAFGRALRYHTGSLAFGALILAIVQIIRVILEYLDQRLKAAENKFAKCLMTCLKCCFWCLEKFIKFLNRNAYIMIAIYGTNFCTSARNAFFLLMRNIIRVAVLDKVTDFLFLLGKLLIVGSVGILAFFFFTHRIRIVQDTAPPLNYYWVPILTVIVGSYLIAHGFFSVYGMCVDTLFLCFLEDLERNDGSAERPYFMSSTLKKLLNKTNKKAAES [SLC44A2] | 0.0147 | 60.2 °C | 60.1 °C | 0.0871 | -1.29 | -2.25
16 | MAIKSIASRLRGSRRFLSGFVAGAVVGAAGAGLAALQFFRSQGAEGALTGKQPDGSAEKAVLEQFGFPLTGTEARCYTNHALSYDQAKRVPRWVLEHISKSKIMGDADRKHCKFKPDPNIPPTFSAFNEDYVGSGWSRGHMAPAGNNKFSSKAMAETFYLSNIVPQDFDNNSGYWNRIEMYCRELTERFEDVWVVSGPLTLPQTRGDGKKIVSYQVIGEDNVAVPSHLYKVILARRSSVSTEPLALGAFVVPNEAIGFQPQLTEFQVSLQDLEKLSGLVFFPHLDRTSDIRNICSVDTCKLLDFQEFTLYLSTRKIEGARSVLRLEKIMENLKNAEIEPDDYFMSRYEKKLEELKAKEQSGTQIRKPS [EXOG] | 0.21 | 52.8 °C | 51.3 °C | -0.0598 | 2.74 | -1.52
17 | MDNSGKEAEAMALLAEAERKVKNSQSFFSGLFGGSSKIEEACEIYARAANMFKMAKNWSAAGNAFCQAAQLHLQLQSKHDAATCFVDAGNAFKKADPQEAINCLMRAIEIYTDMGRFTIAAKHHISIAEIYETELVDIEKAIAHYEQSADYYKGEESNSSANKCLLKVAGYAALLEQYQKAIDIYEQVGTNAMDSPLLKYSAKDYFFKAALCHFCIDMLNAKLAVQKYEELFPAFSDSRECKLMKKLLEAHEEQNVDSYTESVKEYDSISRLDQWLTTMLLRIKKTIQGDEEDLR [NAPA] | 0.324 | 51.7 °C | 52.2 °C | 0.0471 | -0.447 | -0.81
